Measurements as given in US20080146500A1, “Selective Vpac2 Receptor Peptide Agonists” (priority 2004, published 2008).
Ends that are not written are not given here.

Experiments:
human VPAC2 [1] = molecular target: T1, human VPAC2 (Homo sapiens, UniProt P41587); assay: Alpha screen in vitro potency: human VPAC2-R mediated cAMP generation; format: cell-based; conditions: single results or mean of two or more independent runs
T1 construct: expressed in transfected cells
T1 sequence (P41587 24-438): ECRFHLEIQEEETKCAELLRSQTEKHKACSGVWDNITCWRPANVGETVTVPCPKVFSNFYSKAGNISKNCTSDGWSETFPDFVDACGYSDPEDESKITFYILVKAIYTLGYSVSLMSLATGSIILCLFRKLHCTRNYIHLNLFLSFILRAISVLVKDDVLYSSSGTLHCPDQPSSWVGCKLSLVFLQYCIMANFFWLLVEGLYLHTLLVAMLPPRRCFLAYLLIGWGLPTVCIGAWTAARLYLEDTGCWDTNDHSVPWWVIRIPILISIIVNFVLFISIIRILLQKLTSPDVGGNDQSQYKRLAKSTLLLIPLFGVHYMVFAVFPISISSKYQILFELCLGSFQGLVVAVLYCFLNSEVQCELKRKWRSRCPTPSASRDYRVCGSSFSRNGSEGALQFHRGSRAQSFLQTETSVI

rat VPAC2 receptor = molecular target: T2, rat VPAC2 receptor (Rattus norvegicus, UniProt P35000); assay: Rat VPAC2 in vitro potency (cAMP generation, DiscoveRx) in transiently transfected CHO-PO cells; format: cell-based; conditions: CHO-PO cells transiently transfected with rat VPAC2; read-out: rVPAC2 in vitro potency (cAMP generation) EC50
T2 construct: expressed in transfected cells; host or cells: CHO-PO cells, transient
T2 sequence (P35000 23-437): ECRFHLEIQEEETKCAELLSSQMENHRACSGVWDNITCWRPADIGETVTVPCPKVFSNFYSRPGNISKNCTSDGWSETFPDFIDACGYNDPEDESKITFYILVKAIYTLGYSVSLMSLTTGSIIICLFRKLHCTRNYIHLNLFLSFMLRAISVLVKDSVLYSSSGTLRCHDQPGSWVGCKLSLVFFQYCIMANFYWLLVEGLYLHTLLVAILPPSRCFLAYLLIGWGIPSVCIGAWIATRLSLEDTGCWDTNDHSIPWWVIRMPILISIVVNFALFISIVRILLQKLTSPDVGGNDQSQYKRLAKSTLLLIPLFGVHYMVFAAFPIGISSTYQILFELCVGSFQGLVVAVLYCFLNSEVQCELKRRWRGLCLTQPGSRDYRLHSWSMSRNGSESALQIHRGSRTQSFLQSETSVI
Procedure: (§1) Rat receptor selectivity is estimated by comparing functional potency (cAMP generation) in CHO-PO cells transiently expressing rat VPAC1 or rat VPAC2 receptors. CHO-PO cells transiently expressing rat VPAC1 or VPAC2, are seeded with 10,000 cells/well three days before the assay. The cells are kept in 200 μL culture medium. […] The stimuli are present for 30 minutes. The assay buffer is then gently removed.

human VPAC2 [2] = molecular target: T1, human VPAC2; assay: Filter binding assay, membranes from stable VPAC2 cell line, 125I-labeled VIP tracer; conditions: read-out: Human receptor binding (IC50; nM) VPAC2
Procedure: (§2) For this assay, the solutions and equipment include:
(§3) Presoak solution: 0.5% Polyethyleneamine in Aqua dest.
(§4) Buffer for flushing filter plates: 25 mM HEPES pH 7.4
(§5) Blocking buffer: 25 mM HEPES pH 7.4; 0.2% protease free BSA
(§6) Assay buffer: 25 mM HEPES pH 7.4; 0.5% protease free BSA
(§7) Dilution and assay plate: PS-Microplate, U form
(§8) Filtration Plate Multiscreen FB Opaque Plate; […] Type B Glasfiber filter
(§9) In order to prepare the filter plates, the presoak solution is aspirated by vacuum filtration. The plates are flushed twice with 200 μL flush buffer. 200 μL blocking buffer is added to the filter plate. The filter plate is then incubated with 200 μL presoak solution for 1 hour at room temperature.
(§10) The assay plate is filled with […] (2.5 μg) suspended in assay buffer, 25 μL compound (agonist) in assay buffer, and 25 μL tracer (about 40000 cpm) in assay buffer. The filled plate is incubated for 1 hour with shaking.
(§11) The transfer from assay plate to filter plate is conducted. The blocking buffer is aspirated by vacuum filtration and washed two times with flush buffer. 90 μL is transferred from the assay plate to the filter plate. The 90 μL transferred from assay plate is aspirated and washed three times with 200 μL flush buffer. The plastic support is removed. It is dried for 1 hour at 60° C. 30 μL Microscint is added. The count is performed.
(§12) Values reported are single results or the mean of two or more independent runs.

rat VPAC1 receptor = molecular target: T3, rat VPAC1 receptor (Rattus norvegicus, UniProt P30083); assay: Rat VPAC1 in vitro potency (cAMP generation, DiscoveRx) in transiently transfected CHO-PO cells; format: cell-based; conditions: CHO-PO cells transiently transfected with rat VPAC1; read-out: rVPAC1 in vitro potency (cAMP generation) EC50
T3 construct: expressed in transfected cells; host or cells: CHO-PO cells, transient
T3 sequence (P30083 31-459): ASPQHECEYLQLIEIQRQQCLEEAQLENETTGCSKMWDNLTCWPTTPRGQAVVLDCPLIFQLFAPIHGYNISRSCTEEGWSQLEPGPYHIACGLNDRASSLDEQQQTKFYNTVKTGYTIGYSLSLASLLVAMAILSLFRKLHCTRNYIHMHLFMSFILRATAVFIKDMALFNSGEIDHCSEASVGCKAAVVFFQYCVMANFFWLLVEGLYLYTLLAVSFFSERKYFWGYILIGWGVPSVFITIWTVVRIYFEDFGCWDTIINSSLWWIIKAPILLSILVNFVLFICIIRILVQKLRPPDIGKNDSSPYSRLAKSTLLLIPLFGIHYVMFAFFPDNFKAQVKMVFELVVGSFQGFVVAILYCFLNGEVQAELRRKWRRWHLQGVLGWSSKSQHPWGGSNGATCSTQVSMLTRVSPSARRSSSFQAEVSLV
Procedure: as §1

human VPAC1 = molecular target: T4, human VPAC1 (Homo sapiens, UniProt P32241); assay: Filter binding assay, membranes from cells transiently transfected with human VPAC1, 125I-labeled VIP tracer; conditions: read-out: Human receptor binding (IC50; nM) VPAC1
T4 construct: expressed in transfected cells
T4 sequence (P32241 31-457): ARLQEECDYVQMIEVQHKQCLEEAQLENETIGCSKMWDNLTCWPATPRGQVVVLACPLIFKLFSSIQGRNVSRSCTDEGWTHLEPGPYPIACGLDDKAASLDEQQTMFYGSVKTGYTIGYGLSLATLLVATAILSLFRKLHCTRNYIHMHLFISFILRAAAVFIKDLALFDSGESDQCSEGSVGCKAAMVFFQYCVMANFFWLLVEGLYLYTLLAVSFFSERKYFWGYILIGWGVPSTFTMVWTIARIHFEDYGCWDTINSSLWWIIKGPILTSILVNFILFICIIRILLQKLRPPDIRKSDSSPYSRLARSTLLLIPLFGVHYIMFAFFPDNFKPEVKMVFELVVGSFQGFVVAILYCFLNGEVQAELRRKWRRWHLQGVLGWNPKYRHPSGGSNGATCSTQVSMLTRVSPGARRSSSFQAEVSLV
Procedure: as §2, §3, §4, §5, §6, §7, §8, §9, §10, §11, §12

Substance: C6-HDAVFTEQY(OMe)TOrnLRAibQVAAAibOrnYLQSIOrnOrnGGPSSGAPPPC(PEG60K)-NH2 [Agonist P404]
- EC50 (human VPAC2 [1]): 17 nM
- EC50 (rat VPAC2 receptor): 24.4 nM
- IC50 (human VPAC2 [2]): 13.1 nM
- EC50 (rat VPAC1 receptor): 23.4 nM
- IC50 (human VPAC1): > 3000 nM

Substance: C6-HSDAVFTDNYTOrnLRAibQVAAAibKYLQC(PEG40K)IOrnNOrnGGPSSGAPPPS (HSDAVFTDNYTXLRXQVAAXKYLQCIXNXGGPSSGAPPPS; non-natural residues) [Agonist P373]
- EC50 (human VPAC2 [1]): 33.9 nM
- EC50 (rat VPAC2 receptor): 72.2 nM
- IC50 (human VPAC2 [2]): 111 nM
- EC50 (rat VPAC1 receptor): 350 nM
- IC50 (human VPAC1): > 25000 nM

Substance: C6-HSDAVFTEQY(OMe)TOrnLRAibQVAK(CO(CH2)2SPEG40K)AibOrnYLQSIOrnOrnGGPSSGAPPPS-NH2 (HSDAVFTEQYTXLRXQVAXXXYLQSIXXGGPSSGAPPPS; non-natural residues) [Agonist P432]
- EC50 (human VPAC2 [1]): 20.1 nM
- EC50 (rat VPAC2 receptor): 16.7 nM
- IC50 (human VPAC2 [2]): 130 nM
- EC50 (rat VPAC1 receptor): > 100 nM
- IC50 (human VPAC1): > 3000 nM

Substance: P137: PEGylated material obtained from P120 and methoxy-PEG2-MAL-40K (HSDAVFTDNYTRLRKQVAAKKYLQSIKNKRYGGPSSGAPPPC; also: PEGylated with methoxy-PEG2-MAL-40K, site not given here) [Agonist P137]
- EC50 (human VPAC2 [1]): 8.31 nM
- EC50 (rat VPAC2 receptor): 8 nM
- IC50 (human VPAC2 [2]): 0.64 nM
- EC50 (rat VPAC1 receptor): 29.7 nM
- IC50 (human VPAC1): 853 nM
